Source: article PMC12914960, “Repurposing a detrimental antibody epitope as targeted therapeutics for sepsis and rheumatoid arthritis” (Military Medical Research, 2026)
Where no end group is shown, it is not given here. [ ]: non-standard residue; d: D form. Nle = CCCC[C@H](N)C(=O)O

Assays:
Water solubility = assay type: physicochemical; conditions: qualitative, text in Fig. 1d
[1] = test system: CLP-induced sepsis in BALB/c mice; assay: Septic survival after cecal ligation and puncture (CLP); assay type: in vivo, mouse; conditions: P2 5.0 mg/kg twice at 2 h and 24 h post-CLP, i.p.
Procedure: Experimental sepsis was induced in BALB/c mice via CLP as previously described. […] The animals were randomly assigned to the control vehicle (n = 10 or n = 20) or experimental groups (n = 10 or n = 20). P2 (5.0 mg/kg), P2-1 (0.1 mg/kg or 1.0 mg/kg), or tetranectin N-terminal deletion mutant (ΔTN) (1.0 mg/kg) were administered intraperitoneally (i.p.) at the indicated time points, and survival rates were monitored. To elucidate P2-1’s protective mechanisms, a separate group of BALB/c mice (n = 4) underwent CLP and received P2-1 (1.0 mg/kg) at 2 h and 20 h post-CLP. At 24 h post-CLP, the animals were euthanized, blood was collected, and serum cytokines and chemokines were measured via murine cytokine antibody arrays as previously described. More details are presented in Additional file 1: Methods.
For these preclinical studies, animals were random ly assigned to experimental groups and treated with P2, P2-1, or a pCTS-L-neutralizing mAb2 according to the indicated dosing regimens. Outcomes, including septic survival rates, arthritis severity, pain sensitivity, and joint tissue histology scores, were collected under blinded experiment al conditions. The study d esign and sample si zes fo r each exp eriment are d etailed in the figure legends. No data, including outlier values, were excluded. For skewed data, outliers were defined via the interquartile range (IQR) method as any value below Q 1 –(1.5 × IQR) or above Q 3 + (1.5 × IQR). For normally distributed data, outliers were defined via the Z-score method as any value with an absolute Z-score greater than 2 or 3. The primary data are reported in Additional file 4. All the reagent sources are listed in Additional file 1: Table S1 .
Cecal ligation and puncture (CLP) sepsis model […]
screening. c Expression and purification of recombinant full-length human TN (residues 1 – 181) and its N-terminal deletion mutant ( ΔTN, residues 45 – 181). […] Recombinant Δ TN was given intraperitoneally at 24 h and 48 h post-C L P, and animal survival rates were monitored. *P < 0.0 5. […]

human PBMCs [2] = assay: RNA-seq of HMGB1-stimulated PBMCs; assay type: cell-based
Procedure: Total RNA was isolated from human PBMCs (n = 6 biological replicates) stimulated with HMGB1 in the absence or presence of P2-1 (5.0 or 10.0 µg/ml) via the RNeasy Mini Kit (Qiagen, Germantown, MD, USA) according to the manufacturer’s instructions. cDNA libraries were prepared using the TruSeq RNA Library Prep Kit v2 (Illumina, San Diego, CA, USA) and sequenced on an Illumina NovaSeq 6000 platform to generate 100 bp paired-end reads. Gene counts were quantified via StringTie and DESeq2 for differential gene expression analysis. Volcano plots and heatmaps were generated via ggplot2 and pheatmap packages in R, respectively. Genes with an adjusted P-value < 0.05 and a |log2 fold change|> 1 were considered differentially expressed. […]
custom-synthesized (Gen Script, Piscataway, NJ, USA). P2 -1 was engineered to: i) increase solubility by removing a w ater-insoluble phenylalanine (F) at the C-terminal residue 70 and introducing a water-soluble threonine (T) at N-t erminal residue 54; and ii) reduce oxidative susceptibility by substituting methionine (M) with norleucine (Nle) and cysteine (C) with serine (S), respectively. The pCTS -L-neutralizing mAbs (mAb2) and TN-neutrali zing mAbs (mAb8 and m Ab9) were generated in BALB/c and C57BL/6 m ice as previously described .
RNA sequencing (RNA- Seq) and bioinformatics analysis
Total RNA was isolated from human PBMCs (n= 6 biological replicates) stimulated with HMGB1 in the absence o r pres ence o f P2-1 (5.0 or 10.0 µg/ml) via the RNeasy Mini Kit (Qiagen, Germantown, MD, USA) according to the manufacturer ’s instructions. RNA quantity and quality were assessed via a NanoDrop spectrophotometer, which requires A260/280 and A260/230 ratios to both be > 1.8. Samples meeting these criteria were then sent to two sequencing facilities, where RNA integrity was further confirmed via an Agilent Bioanalyzer. Only samples with an RNA integrity number of 8 or above were accepted for RNA sequencing. cDNA libraries were prepared using the TruSeq RNA Library Prep Kit v2 (Illumina, San Diego, CA, USA) and sequenced on an Illumina NovaSeq 6000 platform to generat e 100 bp paired-end reads. Our data filtering criteria adhered to industry best practices to ensure data quality.
First, raw sequencing reads underwent quality assessment with FastQC, followed by adapter and low-quality nucleotide trimming using Trimmomatic v.0.36. Subsequently, the high- quality reads wer e aligned to the Homo sapiens GRCh38 reference genome using the STAR aligner v.2.5.2b. Following alignment, PCR duplicates were identified and removed with Picard tools to mitigate amplification bias. Before differential expression an alysis, the gene count matrix was filtered to retain only genes with a count-per-million (CPM) > 1 in at least three samples (n = 3, representing our smallest experimental group). This rigorous procedure ensured that analysis was perfo rmed on a robust set of reliably expressed gen es. Finally, gene counts were quantified via StringTie and DESeq2 for differential gene expression analysis. Volcano

[3] = target: T1, Recombinant human high mobility group box 1 (HMGB1) (human, UniProt P09429 1-215); assay: SPR; Nicoya OpenSPR; recombinant human HMGB1 immobilized on a carboxyl sensor chip, P2-1 flowed over at various concentrations in HBS-P buffer; 1:1 interaction model; three independent experiments; conditions: both partners purified
T1 construct: high mobility group box 1 (HMGB1); the SPR methods say recombinant human HMGB1; the SPR paragraph says human; The protein on the chip may be that rat construct
T1 sequence (looked up): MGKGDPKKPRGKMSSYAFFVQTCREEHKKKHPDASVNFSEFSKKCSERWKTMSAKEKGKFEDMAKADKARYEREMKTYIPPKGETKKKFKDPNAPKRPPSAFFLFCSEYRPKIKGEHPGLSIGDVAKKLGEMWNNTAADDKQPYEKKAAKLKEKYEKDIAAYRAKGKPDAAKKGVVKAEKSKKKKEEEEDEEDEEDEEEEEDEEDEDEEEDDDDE

[4] = test system: synthetic TN peptides (P1 – P10); assay: Epitope mapping of mAb8 and mAb9 by dot blotting against TN peptides P1 – P10; assay type: binding, human; conditions: 10 synthesized TN peptides, mAb 1.0 µg/ml, chemiluminescence
Procedure: remove unbound protein and then fixed with 4% paraformaldehyde for 20 min at room temperature.
Coverslips were mounted onto slides via Vectashield Mounting Medium for fluorescen ce with DAPI (Cat.
#H-1200, Vector Laborat ories, Inc., Newark, CA, USA) for nuclear counterstaining. Endocytic uptake of Alexa Fluor 555- labeled HMGB1 (red) was visualized via the Olympus IX51 inverted fluorescence & phase contrast tissue culture microscope. Cellular HMGB1 uptake was quantified by measuring the mean fluorescen ce intensity of the Alex a- 555- labeled HMGB1 protein within multiple representative cells via ImageJ an alysis software.
Antibody sequencing and antigen contact structure (ACS) prediction
Total RNA was extracted from mAb8 and mAb9 hybridoma cells via TRIzol (Invitrogen, Austin, TX, USA), and cDNA was synthesized via reverse transcriptase. […]
Corresponding to the C-terminal portion of the TN protein (Additional file 1: Fig. S4a) , a library of 10 synthetic peptides (P1 – P10, Additional file 1: Fig. S4b ) was spotted (0.1 μ g in 2.5 μ l) onto nitrocellulose membranes (Cat No. 88013, Thermo Scientific, Waltham, MA, USA ). […] After washing, the membranes were incubated with HRP-conjugated goat anti-mouse IgG (Jackson ImmunoResearch, West Grove, PA, USA), and signals were detected via chemiluminescence as previously described [ 1].

[5] = test system: CLP-induced sepsis in BALB/c mice; conditions: text in Fig. 1b; mAb8 22% to 77%, mAb9 80% to 50%; ref [21]; cited from earlier work
[6] = test system: Differentiated human macrophages; conditions: TN; ref [21]; cited from earlier work
From the text: Crucially, our findings reveal a striking dichotomy in the biological effects of full-length TN and its derived peptide, P2-1, on HMGB1-mediated detrimental macrophage responses. […] We propose that full-length TN, when complexed with HMGB1, may engage unidentified macrophage surface receptor(s), thereby facilitating receptor-mediated endocytosis of TN/HMGB1 complexes and ...

human PBMCs [7] = conditions: TN; ref [21]; cited from earlier work
From the text: To validate these RNA-seq findings, we quantified HMGB1-induced cytokine/chemokine protein levels using cytokine antibody arrays. Consistent with our RNA-seq data, HMGB1 stimulation led to a significant increase in the protein levels of various cytokines (e.g., TNF, IL-6, and IL-10) and chemokines (e.g., CXCL5/ENA-78, CXCL1/GRO-α, CXCL8/IL-8, CCL2/MCP-1, and CCL7/MCP-3) in human PBMCs (Fig. 6b), confirming its potent immunomodulating activities.

[8] = test system: Differentiated human macrophages; conditions: full-length TN; ref [21]; cited from earlier work
From the text: To investigate P2-1’s effect on HMGB1 endocytosis, differentiated human macrophages were exposed to Alexa Fluor 555-labeled HMGB1 under various conditions (Fig. 5d).

Molecule: KVHMKCFLAFQTKTF [P2]
- Water solubility (Water solubility): Poor water solubility
- septic survival, in words [1]: significantly increased survival rates in both male and female mice

B1: HMGB1: recombinant HMGB1 protein used as stimulus (protein)
chain: T1 sequence (looked up)
- Log2 Fold change (human PBMCs [2]; CXCL5 (ENA-78), P-adjust 3.97E-166): 9.951
- Log2 Fold change (human PBMCs [2]; CXCL8 (IL-8), P-adjust 1.17E-133): 5.985
- Ctsl mRNA upregulation (human PBMCs [2]; HMGB1-only group, human PBMCs): 3.4 ± 0.3 -fold
- Log2 Fold change (human PBMCs [2]; IL1B (IL-1β), P-adjust 1.29E-157): 8.223
- Log2 Fold change (human PBMCs [2]; MT1G (Metallothionein-1G), P-adjust 9.98E-141): 9.377

Molecule: TKVH[Nle]KSFLAFQTKT [P2-1 peptide, water-soluble derivative of the tetranectin P2 epitope peptide]
- Kd [3]: 16.9 nM

B2: mAb8: protective anti-tetranectin monoclonal antibody (antibody, V domains shown)
VH: DVNLVESGGGLVKLGGSLKLSCADSGFTFSSYYMSWVRQTPEKRLELVAAINSNGGRTYYPDTVKGRFTISRDNAKNTLYLQMSSLKSEDTALYYCARQGKNGLDYWGQGTSVTVSS
VL: DIQMTQTTSSLSASLGDRVTISCRASQDISNHLNWYQQKPDGTIKLLIYYTSRLHSGVPSRFSGSGSGTDFSLSISNLEQEDIATYFCQQGKTLPPTFGGGTKLEIK
- epitope peptide recognised (dot blot) [4]: targeted P5
- survival in sepsis [5]: 77%

B3: TN: full-length human tetranectin (protein, UniProt P05452 1-202, looked up)
chain: MELWGAYLLLCLFSLLTQVTTEPPTQKPKKIVNAKKDVVNTKMFEELKSRLDTLAQEVALLKEQQALQTVCLKGTKVHMKCFLAFTQTKTFHEASEDCISRGGTLGTPQTGSENDALYEYLRQSVGNEAEIWLGLNDMAAEGTWVDMTGARIAYKNWETEITAQPDGGKTENCAVLSGAANGKWFDKRCRDQLPYICQFGIV
modifications: full-length
notes: full-length human tetranectin
- HMGB1 endocytosis and macrophage pyroptosis, in words [6]: enhances HMGB1 endocytosis and subsequent macrophage pyroptosis
- HMGB1-induced cytokines/chemokines, in words (human PBMCs [7]): did not affect HMGB1-induced cytokines (e.g., IL-6) or chemokines (e.g., MCP-1)
- HMGB1 cellular uptake, in words [8]: significantly increased HMGB1 uptake
